According to patent US10227653B2, “High MAST2-affinity polypeptides and uses thereof” (INSTITUT PASTEUR, priority 2011, dated 2019):

Key:
[1] = molecular target: T1, PDZ domain of the human MAST2 protein (MAST2-PDZ) (Homo sapiens, UniProt Q6P0Q8); assay: Isothermal Titration Calorimetry (ITC) with MAST2-PDZ; assay type: binding; conditions: 298 K, 50 mM Tris-HCl, 150 mM NaCl, pH7.5, read-out: Kd (μM) (dissociation constant) MAST2-PDZ
T1 sequence (Q6P0Q8 1101-1193 limits assumed): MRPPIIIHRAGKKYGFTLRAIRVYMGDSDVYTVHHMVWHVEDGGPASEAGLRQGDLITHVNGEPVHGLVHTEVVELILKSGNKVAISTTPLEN

[2] = molecular target: T2, PDZ domain of the human PTPN4 protein (PTPN4-PDZ) (Homo sapiens, UniProt P29074); assay: ITC with PTPN4-PDZ; assay type: binding
T2 construct: the PDZ domain of the human PTPN4 protein
T2 sequence (P29074 517-589 limits assumed): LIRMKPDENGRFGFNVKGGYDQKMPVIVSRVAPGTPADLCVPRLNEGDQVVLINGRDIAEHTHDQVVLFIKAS
Experimental: The affinity of the polypeptides of the invention for the PDZ domain of the human PTPN4 protein is low, i.e., the constant of dissociation (KD) of the complex formed by the polypeptide of the invention with the PDZ domain of the human PTPN4 protein is high, in particular is more than 500 μM (for example as measured by ITC, in particular in the same conditions and with the same concentrations as for the MAST2-PDZ above).
ITC measurements were made using VP-ITC VP-ITC200 calorimeters (MicroCal). MAST2-PDZ was titrated at 298 K by injections of the polypeptides (25-45 consecutive aliquots of 5-7 μL at 6-min intervals). Raw data were normalized and corrected for heats of dilution of polypeptides. Equilibrium dissociation constants (KD) were determined performing nonlinear curve fitting of the corrected data to a model with one set of sites using the Origin7.0 software (OriginLab). All samples were prepared in a buffer containing 50 mM Tris-HCl, 150 mM NaCl, pH7.5. Data were recorded with MAST2-PDZ at an initial concentration of 30 μM and with peptide at initial concentrations ranging from 250 μM to 350 μM.

ATT13: polypeptide ending with the MAST-2 binding domain […] (SEQ ID NO:235) (SWESHKSGGETRL; not fully specified)
Kd [1]: 0.57 µM | Kd [2]: 160 µM
